“And” between values parts separate entries of the source, which are not always exact repeats. Equal values may be shown once.
Assays:
[1] = system: thrombin generation in normal human plasma; test: Thrombin generation in NHP in the presence of rivaroxaban or apixaban; type: biochemical; settings: dose titration in NHP
Protocol: Thrombin generation or Endogenous Thrombin Potential (ETP) assays were performed as described. Briefly, plasma samples supplemented with CTI, TF, PCPS were preincubated […] in the presence or absence of rivaroxaban, apixaban, Kcentra®, NovoSeven® or ^superFVa. Thrombin generation was initiated by addition of CaCl2 and Z-Gly-Gly-Arg-AMC in HBS/0.5% BSA. The final reaction mixture contained, 50% plasma, 0.725 μM CTI, 0.2 Pm TF, 4 μM PCPS vesicles, 0.5 mM Z-GGR-AMC, 7.6 mM CaCl2 in a total volume of 100 μl. Concentrations of rivaroxaban, apixaban, Kcentra®, NovoSeven® or ^superFVa are indicated in the result section and in the figure legends. Fluorescence was measured at excitation/emission wavelengths of […] using Gemini EM fluorescent plate reader (Molecular Devices). Fluorescence time course data were converted to Nm thrombin as described. ETP, defined as the area under the curve (AUC) and the peak height were determined using Origin software.

[2] = system: Balb/c mice; test: Liver laceration bleeding assay, APC-induced bleeding in Balb/c mice; type: in vivo; settings: for mortality rate: APC-induced bleeding after liver laceration
Protocol: Mice were anesthetized with Isofluorane 3% and the abdomen was opened by substernal blunt midline dissection. […] Immediately after laceration mice were positioned prone into a small weighing dish (8 cm diameter) filled with saline (37° C., 13 mL), transferred into the anesthesia chamber which rested on a heating pad (37° C.). Anesthesia was maintained at 3% Isofluorane and dishes were changed after 10 minutes to collect blood for the first and second 10 minutes separately. Blood loss was determined as described for the tail clip model. Groups of Balb/c mice were injected intravenously (tail vein) with equal volumes (200 μL) of ^superFVa or saline 2 minutes prior to intravenous injection of plasma-derived human APC, followed immediately by liver laceration. All agents were diluted in sterile sodium chloride 0.9% for injection (Hospira Inc).

[3] = system: thrombin generation in normal human plasma with rhAPC; test: Thrombin generation in normal human plasma in the presence of rhAPC; type: biochemical; settings: human plasma
Protocol: (§1) BU titer values for FVIII antibodies added to FVIII-deficient plasma were determined using a modified Nijmegen Bethesda assay (Barrow and Lollar; JTH 2006, 4:2223-2229). Briefly, antibody was serially diluted in HBS with 0.05% Tween 80 and mixed 1:1 with pooled normal plasma that was supplemented with 100 mM Imidazole, pH 7.0. Samples were incubated at 37° C. for 2 hours then assayed by aPTT with APTT XL reagent (Pacific Hemostasis). A standard curve was derived from a serial dilution of normal plasma into FVIII deficient plasma that was also mixed 1:1 with HBST and incubated at 37° C. for 2 hours. Percent FVIII activity was plotted versus mg/ml of antibody and residual activity of 50% was defined as 1 BU/ml. In addition, endogenous thrombin potential (ETP) assays were performed as described (3). Briefly FVa mutants or saline were added to human or murine plasma (George King Bio-Medical; mouse source, 50% v/v) supplemented with […] corn trypsin inhibitor (Haematologic Technologies), 10 mM CaCl2, 10 μM phospholipid vesicles (80% phosphatidylcholine, 20% phosphatidylserine, prepared as described (6), 0.2 pM soluble tissue factor (Innovin®, Dade Behring), and 0.4 mM Z-Gly-Gly-Arg-AMC (thrombin substrate, Bachem) in HBS. After mixing, 100 μL was transferred to a FluoroNunc microtiter plate at 37° C. to monitor fluorescence (excitation at 360 nm/emission at 460 nm; Gemini EM fluorescent plate reader (Molecular Devices)). Fluorescence time course data were converted to nM thrombin as described (7). ETP, defined as the area under the curve, was determined using Prism 5.04 (Graphpad).
(§2) APC-mediated inactivation of FVa was analyzed in ETP assays and aPTT clotting assays. FVa mutants were incubated with equal volumes of either recombinant human APC (Xigris®) or buffer in human and murine Balb/c plasma.

[4] = system: thrombin generation in murine Balb/c plasma with rhAPC; test: Thrombin generation in murine Balb/c plasma in the presence of rhAPC; type: biochemical, mouse
Protocol: as §1, §2

[5] = system: Balb/c mice; test: Ex vivo whole blood aPTT after intravenous APC in Balb/c mice; design: species or system mouse; settings: for mean whole blood aPTT clotting time: 2 minutes after intravenous APC 0.5 mg/kg, saline 30 sec
Protocol: Recombinant murine APC was administered intravenously to Balb/c mice by tail vein injection 2 minutes prior to retroorbital blood harvest in siliconized microcapillaries (75 μL) prefilled with 20 μL Sodium-Citrate (3.8%). Whole blood aPTT was performed immediately, whereby 50 μL of blood were mixed with 50 μL of aPTT reagent (APTT-XL, Pacific Hemostasis) and incubated at 37° C. for 3 minutes in the presence of FVa or buffer. Following addition of 25 μL of 130 mM CaCl2 in HBS, 0.5% BSA, the clotting time was recorded using an ST4 coagulometer (Diagnostica Stago).

[6] = system: aPTT clotting time in human plasma; test: aPTT clotting assay in human plasma with rhAPC; type: biochemical; settings: human plasma
Protocol: as §2
(§3) Plasma (50 μL) was mixed with 50 μL of a PTT reagent (APTT-XL, Pacific Hemostasis) and incubated at 37° C. for 3 minutes in the presence of FVa either with recombinant human APC or buffer. Following addition of 25 μL of 50 mM CaCl2 in HBS, 0.5% BSA, the clotting time was recorded using an ST4 coagulometer (Diagnostica Stago).

[7] = system: Balb/c mice; test: Tail clip bleeding assay, APC-induced bleeding in Balb/c mice; type: in vivo, mouse
Protocol: Mice were anesthetized with Isoflurane 3%, placed on temperature controlled heating pads (37° C.), and the distal portion of the tail was cut at 1.5 mm diameter after which the tail was immersed in a predefined volume of 37° C. saline (0.9% NaCl) for 20 minutes. To study effects on bleeding and clot stability, tubes were changed after 10 minutes to collect blood for the first and second 10 minutes separately. Blood loss was determined by the hemoglobin concentration in the saline solution after red cell lysis with 2% acetic acid and measured by absorbance at 490 nm. Using a hemoglobin standard derived from defined blood volumes, blood loss was calculated assuming a hematocrit of 46% and expressed in μL/g body weight. Groups of Balb/c mice were injected intravenously (tail vein) with equal volumes (200 μL) of ^superFVa or saline 2 minutes prior to intravenous injection of rhAPC (Xigris®). Immediately after APC injection tail cut was performed. All agents were diluted in sterile sodium chloride 0.9% for injection (Hospira Inc).

[8] = system: aPTT clotting time in murine plasma; test: aPTT clotting assay in murine plasma with rhAPC; type: biochemical, mouse
Protocol: as §2, §3

[9] = plasma derived human APC 1.25 mg/kg
[10] = concentrations where ^superFVa restores

**Q.** COc1ccc(-n2nc(C(N)=O)c3c2C(=O)N(c2ccc(N4CCCCC4=O)cc2)CC3)cc1 [apixaban, Apixaban] was tested. Which “concentration for optimal suppression of ETP” value [1] did it give?
**A.** 200 nM

**Q.** With O=C(NC[C@H]1CN(c2ccc(N3CCOCC3=O)cc2)C(=O)O1)c1ccc(Cl)s1 [rivaroxaban, Rivaroxaban] as the molecule, how does the “concentration for optimal suppression of ETP” value [1] read?
**A.** 200 nM

**Q.** “APC: Activated Protein C; recombinant human (Xigris®, Eli Lilly) or plasma-derived human APC” was tested. Which mean blood loss ([2]; APC 1.25 mg/kg iv, 20 minutes after liver laceration) did it give?
**A.** 40 µL/g

**Q.** And the mean blood loss ([2]; APC 1.25 mg/kg iv, 20 minutes after liver laceration, listed as wt APC)?
**A.** 49 µL/g

**Q.** And the mean blood loss ([2]; APC 1.25 mg/kg, first 10 minutes after liver laceration)?
**A.** 35.1 µL/g

**Q.** What about the mortality rate [2] of the same molecule?
**A.** 54% and ~50%

**Q.** What about the mortality rate ([2]; listed as wt APC) of the same molecule?
**A.** ~40%

**Q.** And the “mice died during the 1st 10 minutes after injury” value [2, 9]?
**A.** Four of 13

**Q.** What about the “more mice died during the 2nd 10 minutes” value [2, 9] of the same molecule?
**A.** Three

**Q.** And the “optimal concentration for maximal suppression of ETP” value [3]?
**A.** 5 nM

**Q.** What about the “optimal concentration for maximal suppression of ETP” value [4] of the same molecule?
**A.** 100 nM

**Q.** What about the “mean whole blood aPTT clotting time” value [5] of the same molecule?
**A.** 67 s

**Q.** What about the “optimal concentration for aPTT prolongation to ~100 seconds” value [6] of the same molecule?
**A.** 10 nM

**Q.** What about the mean blood loss ([7]; APC 1.25 mg/kg iv, combined 20 minutes after tail clip) of the same molecule?
**A.** 27 µL/g

**Q.** And the mean blood loss ([7]; APC 1.25 mg/kg, first 10 minutes after tail clip)?
**A.** 13.7 µL/g

**Q.** And the mean blood loss ([7]; APC 1.25 mg/kg, second 10 minutes after tail clip)?
**A.** 13.2 µL/g

**Q.** What about the mean blood loss ([7]; APC, first 10 minutes after tail clip) of the same molecule?
**A.** 13.7 µL/g

**Q.** And the “dose that resulted in notable bleeding” value ([7]; single intravenous administration, in vivo dose response)?
**A.** 1.25 mg/kg

**Q.** What about the mean blood loss ([7]; wt APC 1.25 mg/kg iv, tail clip) of the same molecule?
**A.** 27 µL/g

**Q.** What about the “optimal concentration for aPTT prolongation to ~100 seconds” value [8] of the same molecule?
**A.** 25 nM

**Q.** Which results are given for “FVa: wild-type recombinant human activated Factor V used as comparator [reference compound]”?
**A.** effect on thrombin generation suppressed by APC [3, 10]: did not show effects; effect on thrombin generation suppressed by APC [4, 10]: did not show effects; effect on whole blood aPTT clotting times ([5]; 1 nM added to whole blood after iv APC 0.5 mg/kg): failed to show a significant effect; mean whole blood aPTT ([5]; FVa variant added ex vivo to whole blood drawn after APC 0.5 mg/kg injection): 50 s; aPTT ([6]; 0.05 U/mL FVa variants, 10 nM APC, ~100 seconds without FVa): ~80 s; aPTT ([8]; 5 U/mL FVa variants, APC, ~100 seconds without FVa): ~70 s

B1: murine recombinant wt APC: Recombinant murine APC purified and prepared as previously described (protein)
chain: ANSFLEEMRPGSLERECMEEICDFEEAQEIFQNVEDTLAFWIKYFDGDQCSAPPLDHQCDSPCCGHGTCIDGIGSFSCSCDKGWEGKFCQQELRFQDCRVNNGGCLHYCLEESNGRRCACAPGYELADDHMRCKSTVNFPCGKLGRWIEKKRKILKRDTDLEDELEPDPRIVNGTLTKQGDSPWQAILLDSKKKLACGGVLIHTSWVLTAAHCVEGTKKLTVRLGEYDLRRRDHWELDLDIKEILVHPNYTRSSSDNDIALLRLAQPATLSKTIVPICLPNNGLAQELTQAGQETVVTGWGYQSDRIKDGRRNRTFILTFIRIPLVARNECVEVMKNVVSENMLCAGIIGDTRDACDGDSGGPMVVFFRGTWFLVGLVSWGEGCGHTNNYGIYTKVGSYLKWIHSYIGEKGVSLKSQKL
**Q.** How did the “mean whole blood aPTT clotting time” value [5] turn out when B1 was run?
**A.** ~60 s
